Positions count from the first letter of the chain named. Blank lines part the entries; values can stand above or below the binder they belong to.
Tests used:
[1] = target: T1, human kallikrein 2 (hK2) (human, UniProt P20151 25-261); assay: cell-based or functional assay
[2] = target: human kallikrein hK1 (human, UniProt P06870 25-262); assay: cell-based or functional assay
[3] = target: T2, human chymotrypsin (Chtr) (human, UniProt P17538 19-263); assay: cell-based or functional assay
[4] = target: T3, human plasma kallikrein (PK) (human, UniProt P03952 20-638); assay: cell-based or functional assay
[5] = target: T4, urokinase plasminogen activator (uPA) (UniProt P00749 21-431, limits assumed); assay: cell-based or functional assay
[6] = target: T5, human neutrophil elastase (HNE) (human, UniProt P08246 30-247, limits assumed); assay: cell-based or functional assay
T5 sequence (looked up): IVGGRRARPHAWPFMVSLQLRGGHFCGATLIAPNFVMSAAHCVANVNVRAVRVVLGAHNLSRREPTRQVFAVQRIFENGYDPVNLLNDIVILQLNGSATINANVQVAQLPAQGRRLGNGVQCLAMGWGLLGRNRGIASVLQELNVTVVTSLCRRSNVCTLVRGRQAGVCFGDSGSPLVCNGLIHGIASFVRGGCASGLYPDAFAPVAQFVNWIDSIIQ

[7] = target: T1, human kallikrein 2 (hK2); assay: progress curve, pseudo-first order, fluorogenic substrate
Procedure: (§1) Under these conditions, a fixed amount of enzyme (2 nM) was mixed with different concentrations of inhibitor (0-800 nM) and an excess of substrate (10 μM). Each reaction was made in reaction buffer (50 mM Tris pH 7.5, 150 mM NaCl, 0,05% Triton X-100, 0.01% BSA) at 25° C. for 45 min and the rate of product formation was measured using a FLₓ800 fluorescence 96-well microplate reader (Biotek, USA). In this model, inhibition is considered to be irreversible over the course of reaction and the progress of enzyme activity is expressed by product formation (P), beginning at a rate (vz) and is inhibited over time (t) at a first-order rate (kobs), rate constant that is dependent only on inhibitor concentration.

[8] = target: T2, human chymotrypsin (Chtr); assay: as above
Procedure: as §1

[9] = target: T3, human plasma kallikrein (PK); assay: as above
Procedure: as §1

[10] = target: T5, human neutrophil elastase (HNE); assay: as above
Procedure: as §1

[11] = target: T1, human kallikrein 2 (hK2); assay: residual enzyme activity against [I]o/[E]o, fluorogenic substrate
[12] = target: T2, human chymotrypsin (Chtr); assay: as above
[13] = target: T3, human plasma kallikrein (PK); assay: as above
[14] = target: T5, human neutrophil elastase (HNE); assay: as above
[15] = target: T6, human kallikrein 14 (hK14) (human, UniProt Q9P0G3 25-251, limits assumed); assay: progress curve
T6 construct: range counted on GenBank AAK48524 (printed), which may differ from the UniProt numbering; also called recombinant hK14
T6 sequence (looked up): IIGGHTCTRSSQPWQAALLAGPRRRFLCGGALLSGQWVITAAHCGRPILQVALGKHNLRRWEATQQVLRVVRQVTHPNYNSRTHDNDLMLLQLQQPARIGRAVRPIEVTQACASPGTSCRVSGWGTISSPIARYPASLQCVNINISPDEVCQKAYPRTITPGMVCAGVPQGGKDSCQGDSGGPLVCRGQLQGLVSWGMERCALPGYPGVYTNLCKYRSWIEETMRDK

[16] = target: T1, human kallikrein 2 (hK2); assay: cell-based or functional assay; remark: listed apart in the source
[17] = target: prostate specific antigen (PSA, hK3) (human, UniProt P07288 25-261); assay: cell-based or functional assay
[18] = target: T2, human chymotrypsin (Chtr); assay: cell-based or functional assay; remark: listed apart in the source
[19] = target: T3, human plasma kallikrein (PK); assay: cell-based or functional assay; remark: listed apart in the source
[20] = target: T5, human neutrophil elastase (HNE); assay: cell-based or functional assay; remark: listed apart in the source
[21] = target: thrombin; assay: cell-based or functional assay
[22] = target: T6, human kallikrein 14 (hK14); assay: cell-based or functional assay
[23] = target: human kallikrein 4 (hK4) (human, UniProt Q9Y5K2 31-254, limits assumed); assay: cell-based or functional assay
[24] = target: T7, human kallikrein 5 (hK5) (human, UniProt Q9Y337 67-293, limits assumed); assay: cell-based or functional assay
T7 sequence (looked up): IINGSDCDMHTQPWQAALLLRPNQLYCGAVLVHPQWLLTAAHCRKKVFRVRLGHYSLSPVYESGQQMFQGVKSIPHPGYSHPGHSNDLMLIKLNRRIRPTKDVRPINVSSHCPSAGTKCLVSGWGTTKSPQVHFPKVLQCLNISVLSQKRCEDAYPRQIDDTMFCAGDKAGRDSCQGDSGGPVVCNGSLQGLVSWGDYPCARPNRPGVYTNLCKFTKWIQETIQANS

[25] = target: human kallikrein 6 (hK6) (human, UniProt Q92876 22-244); assay: cell-based or functional assay
[26] = target: T8, human kallikrein 8 (hK8) (human, UniProt O60259 33-260); assay: cell-based or functional assay
T8 sequence (looked up): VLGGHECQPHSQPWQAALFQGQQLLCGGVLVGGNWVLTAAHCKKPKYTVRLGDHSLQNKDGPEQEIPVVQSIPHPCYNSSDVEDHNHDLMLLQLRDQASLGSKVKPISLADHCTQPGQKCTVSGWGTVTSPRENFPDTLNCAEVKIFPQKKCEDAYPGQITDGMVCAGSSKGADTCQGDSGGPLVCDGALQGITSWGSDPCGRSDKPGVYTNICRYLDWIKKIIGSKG

[27] = target: T9, human kallikrein 13 (hK13) (human, UniProt Q9UKR3 26-277, limits assumed); assay: cell-based or functional assay
T9 sequence (looked up): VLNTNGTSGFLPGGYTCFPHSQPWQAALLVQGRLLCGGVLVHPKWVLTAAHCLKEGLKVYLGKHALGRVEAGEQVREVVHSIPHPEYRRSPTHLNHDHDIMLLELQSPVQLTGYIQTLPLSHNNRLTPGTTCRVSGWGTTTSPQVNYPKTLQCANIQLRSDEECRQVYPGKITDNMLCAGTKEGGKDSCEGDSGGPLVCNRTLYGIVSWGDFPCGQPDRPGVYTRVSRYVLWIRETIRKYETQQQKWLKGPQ

[28] = target: T2, human chymotrypsin (Chtr); assay: cell-based or functional assay; remark: listed apart in the source
[29] = target: T3, human plasma kallikrein (PK); assay: cell-based or functional assay; remark: listed apart in the source
[30] = target: T4, urokinase plasminogen activator (uPA); assay: cell-based or functional assay; remark: listed apart in the source
[31] = target: T5, human neutrophil elastase (HNE); assay: cell-based or functional assay; remark: listed apart in the source
[32] = target: thrombin; assay: cell-based or functional assay; remark: listed apart in the source
[33] = target: T6, human kallikrein 14 (hK14); assay: cell-based or functional assay; remark: listed apart in the source
[34] = target: T6, human kallikrein 14 (hK14); assay: progress curve, pseudo-first order, 37 C
Procedure: The association rate constants for interactions of hK14, with different inhibitors were determined under pseudo-first order conditions using the progress curve method (Morrison and Walsh, 1988). Under these conditions, a fixed amount of enzyme (2 nM) was mixed with different concentrations of inhibitor (0-80 nM) and an excess of substrate (20 μM). Reactions were performed in reaction buffer (50 mM Tris pH 7.5, 150 mM NaCl, 0.05% Triton X-100, 0.01% BSA) at 37° C. for 45 min and the rate of product formation was measured using a FLₓ800 fluorescence 96-well microplate reader (Biotek, USA) Inhibition is considered to be irreversible over the course of reaction and the progression of enzyme activity is expressed as product formation (P), beginning at a rate (vz) and is inhibited over time (t) at a first-order rate (kobs), where the rate constant is only dependent on the inhibitor concentration.
Kinetic analysis of the inhibition of human hK14 by recombinant serpins were performed under pseudo-first-order conditions using an excess of inhibitor at various molar ratios of hK14. The time-dependent inactivation of the enzyme through reaction with serpin was monitored continuously, following the decrease in the rate of substrate turnover. Progress curves for reactions with different serpin concentrations were fitted to equation 1 to calculate values describing the rate constant (kobs). The association rate constants (kₐ) were determined from the slope of kobs values versus the concentration of the hK14 inhibitors.

[35] = target: T6, human kallikrein 14 (hK14); assay: residual hK14 activity against [I0]/[E0]
How it was run: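 hK14 preincubated 4 hours at 37° C with varying inhibitor concentrations in 50 mM Tris pH 7.5, 150 mM NaCl, 0.05% Triton X-100, 0.01% BSA; residual activity read with Boc-Val-Pro-Arg-AMC (ex 340/em 485 nm). SI taken as abscissa intercept of vi/v₀ versus [I₀]/[E₀] linear regression.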

[36] = target: T6, human kallikrein 14 (hK14); assay: residual hK14 activity after 4 h at 37 C against [I0]/[E0]
Procedure: SI values of rAAT, rACT, and their variants were determined with hK14 incubating the protease with varying concentrations of inhibitor. After an incubation of 4 hours at 37° C. in reaction buffer (50 mM Tris, pH 7.5, 150 mM NaCl, 0.05% Triton X-100, 0.01% BSA), the residual activity was detected by the addition of fluorescent substrate (Boc-Val-Pro-Arg-AMC). Fluorescence was measured with excitation at 340 nm (±15) and emission at 485 nm (±10) in black 96 well plates using a microplate fluorescence reader FLₓ800 (Bio-Tek Instruments, Inc.). The SI value corresponds to the abscissa intercept of the linear regression analysis of fractional velocity (velocity of inhibited enzyme reaction (vi)/velocity of uninhibited enzyme reaction (v₀)) vs. the molar ratio of the inhibitor to enzyme ([I₀]/[E₀]).

T3 sequence (P03952 20-638 limits assumed): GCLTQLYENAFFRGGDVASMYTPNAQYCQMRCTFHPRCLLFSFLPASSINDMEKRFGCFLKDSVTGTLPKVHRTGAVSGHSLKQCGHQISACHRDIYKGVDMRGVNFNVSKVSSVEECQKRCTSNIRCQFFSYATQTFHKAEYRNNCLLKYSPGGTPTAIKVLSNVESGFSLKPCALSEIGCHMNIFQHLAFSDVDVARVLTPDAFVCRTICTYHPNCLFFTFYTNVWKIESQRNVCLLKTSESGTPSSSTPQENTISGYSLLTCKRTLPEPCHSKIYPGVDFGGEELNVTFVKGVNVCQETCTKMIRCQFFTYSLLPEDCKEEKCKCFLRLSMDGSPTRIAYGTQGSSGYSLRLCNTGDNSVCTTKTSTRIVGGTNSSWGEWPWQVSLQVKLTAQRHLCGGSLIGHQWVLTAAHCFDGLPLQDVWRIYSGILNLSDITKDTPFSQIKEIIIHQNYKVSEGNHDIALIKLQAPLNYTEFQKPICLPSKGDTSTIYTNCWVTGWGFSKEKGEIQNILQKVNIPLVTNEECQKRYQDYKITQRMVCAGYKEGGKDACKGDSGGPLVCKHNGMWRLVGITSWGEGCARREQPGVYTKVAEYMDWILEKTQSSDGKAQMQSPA
T2 sequence (P17538 19-263): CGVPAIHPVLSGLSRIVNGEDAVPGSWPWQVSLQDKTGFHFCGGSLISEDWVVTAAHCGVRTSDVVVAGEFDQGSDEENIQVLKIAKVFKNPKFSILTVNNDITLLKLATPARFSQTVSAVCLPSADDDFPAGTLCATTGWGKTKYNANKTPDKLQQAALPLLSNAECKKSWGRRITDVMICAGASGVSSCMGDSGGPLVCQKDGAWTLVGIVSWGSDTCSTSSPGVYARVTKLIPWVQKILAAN
human kallikrein 4 (hK4), sequence (Q9Y5K2 31-254 limits assumed): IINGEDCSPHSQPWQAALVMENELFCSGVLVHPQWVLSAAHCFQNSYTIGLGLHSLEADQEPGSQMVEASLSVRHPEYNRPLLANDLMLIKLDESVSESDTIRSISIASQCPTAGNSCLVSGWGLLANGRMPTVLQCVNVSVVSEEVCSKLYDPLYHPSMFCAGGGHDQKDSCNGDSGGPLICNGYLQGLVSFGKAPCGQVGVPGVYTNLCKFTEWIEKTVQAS

INHIBITION % [1]: 95%
INHIBITION % [2]: 0%
INHIBITION % [3]: 66%
INHIBITION % [4]: 54%
INHIBITION % [5]: 0%
INHIBITION % [6]: 30%
kon [7]: 1780 M⁻¹ s⁻¹
kon [8]: 905 M⁻¹ s⁻¹
kon [9]: 424 M⁻¹ s⁻¹
kon [10]: 158 M⁻¹ s⁻¹
SI (stoichiometry of inhibition) [11]: 105
SI (stoichiometry of inhibition) [12]: 134
SI (stoichiometry of inhibition) [13]: 150
SI (stoichiometry of inhibition) [14]: 334
B1: rACT8.20 (other)
chain: MRGSHHHHHHSRHPNSPLDEENLTQENQDRGTHVDLGLASANVDFAFSLYKQLVLKAPDKNVIFSPLSISTALAFLSLGAHNTTLTEILKGLKFNLTETSEAEIHQSFQHLLRTLNQSSDELQLSMGNAMFVKEQLSLLDRFTEDAKRLYGSEAFATDFQDSAAAKKLINDYVKNGTRGKITDLIKDLDSQTMMVLVNYIFFKAKWEMPFDPQDTHQSRFYLSKKKWVMVPMMSLHHLTIPYFRDEELSCTVVELKYTGNASALFILPDQDKMEEVEAMLLPETLKRWRDSLEFREIGELYLPKFSISRDYNLNDILLQLGIEEAFTSKADLSGITGARNLAVSQVVHKAVLDVFEEGTEASAATAVKITLRSRAVETRTIVRFNRPFLMIIVPTDTQNIFFMSKVTNPKQA
notes: recombinant alpha-1-antichymotrypsin (serpin) variant, RSL substrate peptide LRSRA; N-terminal His tag, E. coli TG1; also called MD820; MD 820

kon [15]: 575000 M⁻¹ s⁻¹
Percentage inhibition [16]: 100%
Percentage inhibition [17]: 0%
Percentage inhibition [18]: 14%
Percentage inhibition [19]: 36%
Percentage inhibition [20]: 0%
Percentage inhibition [21]: 0%
Percentage inhibition [22]: 100%
Percentage inhibition [23]: 100%
Percentage inhibition [24]: 100%
Percentage inhibition [25]: 72%
Percentage inhibition [26]: 34%
Percentage inhibition [27]: 0%
% Inhibition [28]: 14%
% Inhibition [29]: 36%
% Inhibition [30]: 0%
% Inhibition [31]: 0%
% Inhibition [32]: 0%
% Inhibition [33]: 100%
kon [34]: 575000 M⁻¹ s⁻¹
SI (stoichiometry of inhibition) [35]: 1.2
SI (stoichiometry of inhibition) [36]: 1.2
B2: ACTE8 (other)
chain: B1 chain with T370L, L371Q, S373A, R374I, A375L
notes: also called rACTE8

Reference: patent US20140341881A1 (DERMADIS, published 2014)
